Among the data in patent US20250249118A1 (Eli Lilly, published 2025) are Kd values, retold here.

The target of assay [1] is T1, cynomolgus TfR ECD (cynomolgus).
T1 chain: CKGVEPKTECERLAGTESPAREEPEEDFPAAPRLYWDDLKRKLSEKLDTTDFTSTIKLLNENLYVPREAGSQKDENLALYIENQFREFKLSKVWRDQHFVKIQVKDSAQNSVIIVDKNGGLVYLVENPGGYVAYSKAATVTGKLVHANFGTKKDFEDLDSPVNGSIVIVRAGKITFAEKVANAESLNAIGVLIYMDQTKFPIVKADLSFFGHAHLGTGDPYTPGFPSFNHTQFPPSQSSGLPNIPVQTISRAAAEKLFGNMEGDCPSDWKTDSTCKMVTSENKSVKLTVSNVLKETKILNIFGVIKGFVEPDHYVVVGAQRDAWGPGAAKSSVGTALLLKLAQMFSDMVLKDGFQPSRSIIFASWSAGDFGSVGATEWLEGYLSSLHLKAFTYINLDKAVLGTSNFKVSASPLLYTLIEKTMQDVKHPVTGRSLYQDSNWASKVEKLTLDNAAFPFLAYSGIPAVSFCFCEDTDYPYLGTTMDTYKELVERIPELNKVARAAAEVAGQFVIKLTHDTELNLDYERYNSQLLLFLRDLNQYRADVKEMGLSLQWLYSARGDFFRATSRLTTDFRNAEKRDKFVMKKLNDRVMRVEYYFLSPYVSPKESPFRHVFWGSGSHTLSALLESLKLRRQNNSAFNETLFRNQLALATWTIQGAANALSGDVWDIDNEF
In words: SPR, Biacore 8K, 37 C, TfR ECD amine-coupled on CM4 chip, TBP as analyte, 2-state model; SEM 2.565 nM, n = 3. Here is the method: (§1) Target human and cynomologus TfR ECD's were immobilized on a CM4 chip (Cytiva P/N 29104989) using standard NHS-EDC amine coupling. The TfR binding proteins were prepared at a final concentration of 0.3, 0.1, 0.033, 0.01, 0.0033, 0.001, 0.00033, 0.0001 μM respectively by dilution of stock solution into running buffer.
(§2) Binding analysis was performed in a multi-cycle kinetics manner. Each analysis cycle consists of (1) injection of the lowest to highest concentration proteins over all Fc at 50 μL/min for 140 seconds followed by return to buffer flow for 400 seconds to monitor dissociation phase; (2) regeneration of chip surfaces with injection of 3M magnesium chloride, for 30 seconds at 100 μL/min over all cells; and (3) equilibration of chip surfaces with a 50 μL (30-sec) injection of HBS-EP+. Data were processed using standard double-referencing and fit to a 2-state binding model using Biacore 8K Evaluation software, to determine the association rate (kₒₙ, M⁻¹ s⁻¹ units), dissociation rate (koff, s⁻¹ units), and Rₘₐₓ (RU units). The equilibrium dissociation constant (KD) is calculated from the relationship KD=koff/kₒₙ, and is in molar units.
Background: Surface plasmon resonance follows binding to a sensor surface in real time, without labels.

The target of assay [2] is T2, human TfR ECD (human, UniProt P02786 89-760).
T2 construct: extracellular domain; also called human Transferrin Receptor 1 extracellular domain
Put plainly: SPR, Biacore 8K, 37 C, TfR ECD amine-coupled on CM4 chip, TBP as analyte, 2-state model; SEM 7.949 nM, n = 3. Here is the method: as §1, §2

B1: TBP4 (One Arm Heteromab 1, A378C) (antibody)
heavy: EVQLVESGGGLVKPGGSLRLSCVASGFTFSSYSMNWVRQAPGKGLEWVSSISSSSSYIYYADSVKGRFTISRDNAKNSLYLQMNSLRAEDTAVYYCARRHGYSNSDAFDNWGQGTLVTVSSASTKGPSVFPLAPCSRSTSESTAALGCLVKDYFPEPVTVSWNSGALTSGVHTFPAVLQSSGLYSLSSVVTVPSSSLGTKTYTCNVDHKPSNTKVDKRVESKYGPPCPPCPAPEAAGGPSVFLFPPKPKDTLMISRTPEVTCVVVDVSQEDPEVQFNWYVDGVEVHNAKTKPREEQFNSTYRVVSVLTVLHQDWLNGKEYKCKVSNKGLPSSIEKTISKAKGQPREPQVSTLPPSQEEMTKNQVSLMCLVYGFYPSDICVEWESNGQPENNYKTTPPVLDSDGSFFLYSVLTVDKSRWQEGNVFSCSVMHEALHNHYTQKSLSLSLG
light: DIQMTQSPSAMSASVGDRVTITCRASQGISHYLVWFQQKPGKVPKRLIYAASSLQSGVPSRFSGSGSGTEFTLTISSLQPEDFATYYCLQHNSYPWTFGQGTKVEIKRTVAAPSVFIFPPSDEQLKSGTASVVCLLNNFYPREAKVQWKVDNALQSGNSQESVTEQDSKDSTYSLSSTLTLSKADYEKHKVYACEVTHQGLSSPVTKSFNRGEC
Fc: ESKYGPPCPPCPAPEAAGGPSVFLFPPKPKDTLMISRTPEVTCVVVDVSQEDPEVQFNWYVDGVEVHNAKTKPREEQFNSTYRVVSVLTVLHQDWLNGKEYKCKVSNKGLPSSIEKTISKAKGQPREPQVYTLPPSQGDMTKNQVQLTCLVKGFYPSDICVEWESNGQPENNYKTTPPVLDSDGSFFLASRLTVDKSRWQEGNVFSCSVMHEALHNHYTQKSLSLSLG
notes: One-arm heteromab: HC1 with LC1, plus an Fc-only HC2; IgG4 PAA; also called OAH1; copies: 1 + 1 + 1
For the molecule B1, the Kd was 300 nM in assay [1] and 154 nM in assay [2].

One may read the Kd as the free concentration of one partner at which half of the binding sites on the other are occupied at equilibrium, for simple one-to-one binding. Lower therefore signals a tighter complex.
